Experimental data as given in patent publication US20150274845A1 (Hoffmann-La Roche, published 2015).

B1: (scFv)2 (antiMCSP/anti huCD3e) (bispecific antibody)
scFv: DIVLTQSPSSLSASLGDRVTISCSASQGIRNYLNWYQQRPDGTVKLLIYYTSSLHSGVPSRFSGSGSGTDYSLTISNLEPEDIATYYCQQYSKLPWTFGGGTKLEIKGGGGSGGGGSGGGGSEVQLQESGPGLVKPSQSLSLTCSVTGYSITSGYYWNWIRQFPGNKLEWMGYITYDGSNNYNPSLKNRISITRDTSKNQFFLKLNSVTTEDTATYYCADFDYWGQGTTLTVSSGGGGSEVQLVESGGGLVQPGGSLRLSCAASGYSFTGYTMNWVRQAPGKGLEWVALINPYKGVSTYNQKFKDRFTISVDKSKNTAYLQMNSLRAEDTAVYYCARSGYYGDSDWYFDVWGQGTLVTVSSVEGGSGGSGGSGGSGGVDDIQMTQSPSSLSASVGDRVTITCRASQDIRNYLNWYQQKPGKAPKLLIYYTSRLESGVPSRFSGSGSGTDYTLTISSLQPEDFATYYCQQGNTLPWTFGQGTKVEIKHHHHHH
B2: hu Fab (MCSP)-Crossfab (CD3) (bispecific antibody)
chain 1: EVQLQESGPGLVKPSQSLSLTCSVTGYSITSGYYWNWIRQFPGNKLEWMGYITYDGSNNYNPSLKNRISITRDTSKNQFFLKLNSVTTEDTATYYCADFDYWGQGTTLTVSSASTKGPSVFPLAPSSKSTSGGTAALGCLVKDYFPEPVTVSWNSGALTSGVHTFPAVLQSSGLYSLSSVVTVPSSSLGTQTYICNVNHKPSNTKVDKKVEPKSCDGGGGSGGGGSDIQMTQSPSSLSASVGDRVTITCRASQDIRNYLNWYQQKPGKAPKLLIYYTSRLESGVPSRFSGSGSGTDYTLTISSLQPEDFATYYCQQGNTLPWTFGQGTKVEIKSSASTKGPSVFPLAPSSKSTSGGTAALGCLVKDYFPEPVTVSWNSGALTSGVHTFPAVLQSSGLYSLSSVVTVPSSSLGTQTYICNVNHKPSNTKVDKKVEPKSC
light: DIVLTQSPSSLSASLGDRVTISCSASQGIRNYLNWYQQRPDGTVKLLIYYTSSLHSGVPSRFSGSGSGTDYSLTISNLEPEDIATYYCQQYSKLPWTFGGGTKLEIKRTVAAPSVFIFPPSDEQLKSGTASVVCLLNNFYPREAKVQWKVDNALQSGNSQESVTEQDSKDSTYSLSSTLTLSKADYEKHKVYACEVTHQGLSSPVTKSFNRGEC
chain 2: EVQLVESGGGLVQPGGSLRLSCAASGYSFTGYTMNWVRQAPGKGLEWVALINPYKGVSTYNQKFKDRFTISVDKSKNTAYLQMNSLRAEDTAVYYCARSGYYGDSDWYFDVWGQGTLVTVSSASVAAPSVFIFPPSDEQLKSGTASVVCLLNNFYPREAKVQWKVDNALQSGNSQESVTEQDSKDSTYSLSSTLTLSKADYEKHKVYACEVTHQGLSSPVTKSFNRGEC

Key:
[1] = biological target: human Melanoma-associated Chondroitin Sulfate Proteoglycan (MCSP) (human, UniProt Q6UVK1 30-2322); test: cell-based or functional assay
human Melanoma-associated Chondroitin Sulfate Proteoglycan (MCSP), sequence (Q6UVK1 30-2322): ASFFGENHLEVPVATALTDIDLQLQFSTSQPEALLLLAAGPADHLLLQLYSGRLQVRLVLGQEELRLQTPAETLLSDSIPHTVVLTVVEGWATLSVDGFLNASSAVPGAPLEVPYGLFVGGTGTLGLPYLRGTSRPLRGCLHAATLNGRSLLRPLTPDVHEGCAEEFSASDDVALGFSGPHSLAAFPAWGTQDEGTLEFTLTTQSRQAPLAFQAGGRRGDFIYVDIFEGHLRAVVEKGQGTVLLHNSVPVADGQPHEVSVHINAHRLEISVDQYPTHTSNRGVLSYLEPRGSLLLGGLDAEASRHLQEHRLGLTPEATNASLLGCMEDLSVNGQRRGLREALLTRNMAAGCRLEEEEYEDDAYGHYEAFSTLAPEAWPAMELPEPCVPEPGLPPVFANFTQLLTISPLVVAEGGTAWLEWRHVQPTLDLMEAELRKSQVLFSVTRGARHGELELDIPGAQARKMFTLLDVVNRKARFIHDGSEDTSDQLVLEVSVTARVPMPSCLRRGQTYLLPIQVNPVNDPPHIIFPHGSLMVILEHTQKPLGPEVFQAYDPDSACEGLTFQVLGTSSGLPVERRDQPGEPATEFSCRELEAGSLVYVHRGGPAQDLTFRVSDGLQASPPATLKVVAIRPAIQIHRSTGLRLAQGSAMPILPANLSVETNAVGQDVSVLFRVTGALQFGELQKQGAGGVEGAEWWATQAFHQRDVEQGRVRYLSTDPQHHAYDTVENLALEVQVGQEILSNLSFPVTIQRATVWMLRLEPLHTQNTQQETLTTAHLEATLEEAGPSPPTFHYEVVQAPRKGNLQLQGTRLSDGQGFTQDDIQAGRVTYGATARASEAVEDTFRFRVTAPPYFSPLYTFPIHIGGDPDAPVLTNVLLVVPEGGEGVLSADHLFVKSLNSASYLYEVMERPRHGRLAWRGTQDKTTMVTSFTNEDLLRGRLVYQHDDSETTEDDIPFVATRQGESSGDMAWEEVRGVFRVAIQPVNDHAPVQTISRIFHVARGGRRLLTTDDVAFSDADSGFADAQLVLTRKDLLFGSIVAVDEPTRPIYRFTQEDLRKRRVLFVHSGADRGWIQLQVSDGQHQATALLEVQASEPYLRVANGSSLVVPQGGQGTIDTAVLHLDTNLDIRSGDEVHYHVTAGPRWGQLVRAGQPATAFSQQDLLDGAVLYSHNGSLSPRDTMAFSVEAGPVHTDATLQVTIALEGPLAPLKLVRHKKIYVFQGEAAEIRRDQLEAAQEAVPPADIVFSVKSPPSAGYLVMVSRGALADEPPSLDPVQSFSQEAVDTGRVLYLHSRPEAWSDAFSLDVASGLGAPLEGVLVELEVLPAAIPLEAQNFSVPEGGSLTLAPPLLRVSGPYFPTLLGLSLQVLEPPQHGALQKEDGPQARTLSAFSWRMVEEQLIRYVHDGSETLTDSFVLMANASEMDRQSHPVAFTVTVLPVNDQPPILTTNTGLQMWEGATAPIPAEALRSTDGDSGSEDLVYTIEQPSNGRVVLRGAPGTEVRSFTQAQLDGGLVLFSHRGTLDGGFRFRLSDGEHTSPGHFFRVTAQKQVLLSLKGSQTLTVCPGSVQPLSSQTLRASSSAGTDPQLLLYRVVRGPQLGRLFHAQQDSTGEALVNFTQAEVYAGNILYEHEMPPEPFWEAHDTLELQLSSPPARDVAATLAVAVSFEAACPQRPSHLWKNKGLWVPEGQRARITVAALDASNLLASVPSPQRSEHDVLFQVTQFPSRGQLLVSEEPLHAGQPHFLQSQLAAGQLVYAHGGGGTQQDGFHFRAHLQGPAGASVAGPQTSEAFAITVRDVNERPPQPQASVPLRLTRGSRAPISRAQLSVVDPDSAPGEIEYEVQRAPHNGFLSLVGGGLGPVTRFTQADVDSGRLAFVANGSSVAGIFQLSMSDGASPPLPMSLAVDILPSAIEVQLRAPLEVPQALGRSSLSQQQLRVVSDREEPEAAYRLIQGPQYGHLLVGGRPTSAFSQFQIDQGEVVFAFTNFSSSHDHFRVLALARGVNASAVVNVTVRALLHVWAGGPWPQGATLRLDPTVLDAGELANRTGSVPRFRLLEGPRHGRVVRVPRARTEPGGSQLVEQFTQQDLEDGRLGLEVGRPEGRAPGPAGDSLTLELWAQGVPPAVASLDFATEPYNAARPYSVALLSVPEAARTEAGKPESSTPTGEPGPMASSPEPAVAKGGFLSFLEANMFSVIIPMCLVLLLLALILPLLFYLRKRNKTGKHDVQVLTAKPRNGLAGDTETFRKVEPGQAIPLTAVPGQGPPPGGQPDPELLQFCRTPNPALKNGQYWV

[2] = biological target: human CD3 T-Cell Co-Receptor (CD3) (human, UniProt P07766 23-207); test: cell-based or functional assay
human CD3 T-Cell Co-Receptor (CD3), sequence (P07766 23-207): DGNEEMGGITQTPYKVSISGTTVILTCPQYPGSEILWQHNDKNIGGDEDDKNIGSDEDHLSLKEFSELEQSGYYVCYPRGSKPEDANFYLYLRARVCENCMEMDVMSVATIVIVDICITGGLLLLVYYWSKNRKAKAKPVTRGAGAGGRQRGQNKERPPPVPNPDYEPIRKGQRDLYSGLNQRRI

Binder | EC50 of killing (LDH release) of MV-3 tumor cells, human PBMCs, E:T 10:1, 24 hours [1] [nM] | EC50 of killing (LDH release) of MV-3 tumor cells, human PBMCs, E:T 10:1, 24 hours [2] [nM]
B1 | 0.057 | 0.057
B2 | 0.0254 | 0.0254
